Data as given in patent US20230158141A1.

Experiments:
IL2Rb = biological target: T1, IL2Rb (UniProt P14784); test: IP and ELISA; Cys mutant, no arm
T1 sequence (looked up): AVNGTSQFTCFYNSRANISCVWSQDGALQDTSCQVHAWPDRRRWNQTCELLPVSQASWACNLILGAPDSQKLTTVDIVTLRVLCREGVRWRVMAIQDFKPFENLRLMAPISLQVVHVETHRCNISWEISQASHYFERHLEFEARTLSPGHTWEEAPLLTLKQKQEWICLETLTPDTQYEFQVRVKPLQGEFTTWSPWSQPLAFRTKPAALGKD

IL2 receptor gamma = biological target: T2, IL2 receptor gamma (UniProt P31785); test: IP and ELISA; S3 on the Cys
T2 sequence (looked up): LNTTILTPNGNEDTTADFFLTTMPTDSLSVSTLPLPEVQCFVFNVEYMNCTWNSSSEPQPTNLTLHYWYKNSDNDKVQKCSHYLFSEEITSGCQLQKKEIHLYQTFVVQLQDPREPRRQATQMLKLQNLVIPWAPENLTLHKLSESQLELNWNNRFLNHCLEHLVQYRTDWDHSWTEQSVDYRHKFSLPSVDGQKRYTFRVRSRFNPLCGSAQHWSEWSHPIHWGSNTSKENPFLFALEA

## IL2-Leu80Cys (from UniProt P60568 21-153) (ligand)
IL2Rb
  binding activity after mutation, % of native IL2: 27%

## IL2-Thr51Cys (from UniProt P60568 21-153) (ligand)
IL2 receptor gamma
  binding activity after conjugating to S3, % of native IL2: 89.7%
